{
  "source": "the DeepSol protein solubility set",
  "data": [
    {"assay": "soluble on expression in E. coli; label from the status in PepcDB or PDB records", "values": [
      {"sequence": "MSLCRVLRVKHSSYYDWLSRDISEQQIHRNHCELLVKAAHSETHERYGVERLHAHLSEQGHNISPYMVRSIKEEYSIKCRRHKRFKVTTDSNHNKLVYPNVLDQEFDASRPNQAWASDITYIWTLEGWLYLAGVKDLYTKELVGYAINKRMTADLVCKALNMAIKNKQPSKGLVVHSDRGSQYCSHAYHKIIKQHQFTGSMSGKGNCFDNAPIESFWGILKNELVYHQDYKTRFAAIRDIIGYIELYYNQTRIQKGLGYKSPRQVWFDYYRQAAEGHHHHHH", "soluble on expression in E. coli": "soluble"},
      {"sequence": "MHLPPKLALTTGVLLVALPLATPAWGQPPTPASPLVQQLNNGNWLDPKEAETLRDELYYQRAIHAYMTMLPALNVIGMRDGSEKVFGAGYNVLPVWKERMDARTMVPTPNADVIYSMSYLDLKKTGPLVVKAPANVIGMFTDFFQRTLTDVGAIGPDRARGGLYLILPPDYDGHVPSSYFVVKSPTYNVFLFFRTIMGQGKGKPDPAPAVKAAETTRVYPLWAEEKDIKPMEFPDGSGKHINMMYPVDQEYWTKLKEFVDYEPVSAIDPELRGVLASIGIVKGQPFKPTAREQELLKRAVETAPKMILAMRQLGREDKRHLYYKDRQWERAWAGATAEWMQDSYLDVNQRATFFQIAYSSAPAMVMRTTGAGSKYPFTARDANGEFLNGSATYKLRMPPDAPAALFWAVTAYNVTDGTMPETDQLMPSTNGYYDIPKQKDGSTEIWFGPQKPADVADAAFIKTIPNRNFLVTLRLYGAEDAFYDQTWKPDDVVKVKLEHHHHHH", "soluble on expression in E. coli": "not soluble"},
      {"sequence": "NAELAKSGIEVKNDVCEHFAYSRQELFHLIRIEEIKTFDELLEKYGKGYGCEVCKPLAGSILASCWGEHILKPQLVKLHDTNDNFLGNIQKDGTYSVIPRMAGGEVTPQALGALANVAAEYNLYTKVTGAQRIGLFGAQKDDLPEIWRKLIDAGFETGQAYAKALRMAKTCVGSTWCRYGVQDSVGLGSYIENRYKGIRTPHKMKFGVSGCTRECAEAQGKDLGIIATDAGWNMYVCGNGGMKPRHADLLASDLDKETLIKYIDRFMMFYIRTAAPLQRTSVWMENMEGGVDYLRAVIVEDKLGINAQLEADVAKLVDEYECEWTATINDASQLTRFAHFINSDKRDDNVVFVQEREQHRPATFTEKHPEAKGDILHVAITEA", "soluble on expression in E. coli": "not soluble"},
      {"sequence": "MGSDKIHHHHHHMTHEFVTILHTNDLHSHVEHWPRIANWIKTRRAQLQAAGHFVLTFDVGDFIDRYDANTQATWGKANVELLNDCTFDGVTIGNNEGLGLPRDRMEDIYSERRFAVLLANIFENDHGLPKWAEEYRVFVTPKGTRISAFGLTAAYDLTYPLLDWLPAQPVETLEKLSDRVIAQSDIRILLSHLGLPTDQSLARRFKEISVILGAHTHHLLPKGQMVENTLLAAAGKYGENVGEVDLEIDEKHQVVSERAHTIKFDNLPEVESASAFLENWRESGRNILENQIISNLPTDRSTLQQIDDCADALMEKFQTKIAMISSGMFLDELPAGQLNAFQLLKDLPHTIHPMKIDILGSDLLKLFDEINLQHDHLLNQHINGSGFRGDKFGEIKFYGLHEKQVDPKQHYEIASLDHYYFLPWFHSLQSADVSFDFKNILRELTAGYYREKYSHQEAV", "soluble on expression in E. coli": "not soluble"},
      {"sequence": "GSSAKRKQEEKHLKMLRDMTGLPHNRKCFDCDQRGPTYVNMTVGSFVCTSCSGSLRGLNPPHRVKSISMTTFTQQEIEFLQKHGNEVCKQIWLGLFDDRSSAIPDFRDPQKVKEFLQEKYEKKRWYVPPEQAKVVASVHA", "soluble on expression in E. coli": "soluble"},
      {"sequence": "MGSDKIHHHHHHMGFRNVIITQHSKLSYSNNAMIVQNKDGINQIPLVDMDILLISTTQAVITSALVSKLAESGIKVIFTDNKNEPVTETVNYYPNNRSLDTYLQQYEWNDHVKEILWTKIVRSKIINQIKVLKNYQIDCQDLKIELDKLEINDMTNREAVVARKYFEKLFGNKYSRKDFTPMNAALNYGYSILLSAVNKEIVSAGYVTYLGIHHQSQENMFNFGSDLMESFRPVVDYWLADKNFLEFTPDIKYGLVDLLNLEIKYNKKQMLLKNAITKYVRDVIEYLNQETVEFDMEVEFTNEVPNNAINDNI", "soluble on expression in E. coli": "not soluble"},
      {"sequence": "MLLMKTASKTNNSVRRNMNTHSAISELIAPWLELTDPKLAALVITHLELDSRLIKSGDTFVAIQGHAVDGRQFIDKAIAQGANLVLAEADAQHLNGWVEYRAGVPVIYLAELGQHLSELAGRLYGGHHNQLIGVTGTNGKTTITQLIAQWLELLGHKAAVMGTTGNGFLNALEPAANTTGNALQIQATLRDLAERGAQYTALETSSHGLVQGRVKKLHFVAGVFSNLSRDHLDYHGTMEAYAAAKFSLFSEHACQNAIINVDDAVGAQWVKQLPQAIGVSLVTKPNTAQAIWAREVAYAESGITLNFESSWGEGELHAPLIGEFNACNLLLALATLLSLGFEKSALLATAPKLRPVLGRMELFQREQKAKMVVDYAHTPDALEKALRALRVHCAGQLWAIVGCGGDRDRGKRPMMAAIAEQFADRVILTDDNPRSESPQAIVADMVAGLTYPERAHIEHHRFQAASYALQHAGAQDIILLAGKGHEDYQVLANETIHYSDRETAQQLLELQP", "soluble on expression in E. coli": "not soluble"},
      {"sequence": "ASGFAGHLSVGFSPVVGPVVLPESIRRFRAAYPDVLVSVIEASIDLLLPGLRNGDFDIVVGRLEEVAMPEDVRCETLYDEPVCLVAGRAHPLAGRRRISWEDAQAYPWISPQQGTPLRMRLEMELAVAGQPLPRHAVESTSVQTNVALLDRS", "soluble on expression in E. coli": "not soluble"},
      {"sequence": "MEKLSSSSHFLDLGGLDNLRAQAQKDEKGALKKVAQQFEGVFVQMLMKSMRDANAVFESDSPLNSQYTKFYEQMRDQQLSVDLSDKGVLGLADMMVQQLSPESSPFTPASVLRNDGGMKLEHDAKALNIPTQTPSTAEAESANTPVVVAHGVPASIARPSVEFEDNNGVTSSLDIDRPQRLLAIDTPKPTWSEQPLSAIEPVISGQILPTVAFRETQKTLKFGSREEFLATLYPHAEKAAKALGTKPEVLLAQSALETGWGQKIVRGHNGAPSHNLFNIKADRRWQGDKANVSTLEFEQGIAVRQKADFRVYNDFDHSFNDFVSFIADGERYQDAKKVAASPTQFIRALQEAGYATDPKYAEKVIKVMQSISEELKSILPGEDK", "soluble on expression in E. coli": "not soluble"},
      {"sequence": "MVLEHCRDAIESHGVETDIISLRGMKIESCRACLSCAKKHRCRIDDGLNDIIDRIRDSEGFIVATPVYFGTARGDLMAALQRIGMVSRASDGFLSWKVGGPIAVARRGGHTATIQELLMFYFINDMIVPGSTYWNMVFGWAPGEVEDDSEGIETIRRFGENVAELIKRINGGSLEHHHHHH", "soluble on expression in E. coli": "not soluble"},
      {"sequence": "DDGDCKNIYRYSPKDGKFEKLNLETDVTSAFALSEYNPGIAAYIGQSDYNAGVAYLYDMKKKTSSLLADPMKPILEKIELGKTEPWNFTASDGTVITGKMCLPPNFDPNKKYPMIVYYYGGTTPTTRGISNPYCAQLFASRDYVVYVIQPSGTIGFGQEFSARHVNAWGKRTADDIIEGTKQFCKEHPFVDEKKIGCLGASYGGFMTQYLQTQTDIFAAAVSHAGISDVTSYWGEGYWGYSYNAIAAADSYPWKDPDLFTKQGSLFNADKINTPLLLLHGTVDTNVPIGESIQLFNALKILGKTVEFVTVDGENHFISDYDKRIKWHNSIMAWFARWLQ", "soluble on expression in E. coli": "not soluble"},
      {"sequence": "MGSDKIHHHHHHMSTNISWTDETINPIVGCSRISAGCQNCYASTAAASARLQQFPQYQKVKDWNGTVEFAESALLKPLSWKKPKRIFVCSMSDLFHENVPDQWRDRVFGIMAAAHWHIFQVLTKRPLNALKYFQNFNLAQRIKDAGNLVCKPELPLKNVWFGVTCENQEMADKRIPILLQIPAKVRFLSCEPLLEEIDLSEVFGLYEYEEGKFALKVGSRWESSPDWVIVGGESGKDARVCHIDWVRSLTRQCQAAEVPVFVKQLGSNCIESLPYIAGVPSTDYQFKTSDRKGGDISEFPEDLQVRKFPDIHKTR", "soluble on expression in E. coli": "not soluble"},
      {"sequence": "MLAVVDEEGTPVAGAMGFAQVVRDGLVVDYIGAVDILRELKATLEESLGAELLKAGVAYPPGTSPGDQKALHYIAEAAGFNVIAALDEPTAANNVLNIEDGAVIDIGGGTTGTAVIGQGQVVCVADEPTGGTHVSLVIAGAYRLPFAEAEKLKMDSCKHQELLPIIKPVIEKIAGIIRQHIQEHPVDQVYLVGGTSCFTGFETIVAAELQRPVIKPANPFLVTPLGIALAAAKTCSNP", "soluble on expression in E. coli": "not soluble"},
      {"sequence": "MSLAASRRRNTYSQKVNMSNNVRADSLSLLLFTLRSGKLMAINLLKVSEIIPCPALTHLPESHPHVKGIATLRGSSLAVIDLSRAIGERPLADPDGGCLIVTDVSRSKQGLHVQAVSKIVHCLTTDIRPPPYGSSSKSFITGVTQVDGVLVQVLDIEKVIHGIAPAQIVVQSTELAKEDAEVLSKARILVVDDSQVALQQSIITLRNLGIECHTARSAREAIDVLLDLQGTARQINVVVSDIEMSEMDGYALTRTLRDTPDFSDLYILLHTSLDSAMNSEKSQIAGANAVLTKFSSPELTKCLIEAARTVVAQGEGHHHHHH", "soluble on expression in E. coli": "soluble"},
      {"sequence": "GSVPATLPQLTPTLVSLLEVIEPEVLYAGYDSSVPDSTWRIMTTLNMLGGRQVIAAVKWAKAIPGFRNLHLDDQMTLLQYSWMYLMAFALGWRSYRQSSANLLCFAPDLIINEQRMTLPGMYDQCKHMLYVSSELHRLQVSYEEYLCMKTLLLLSSVPKDGLKSQELFDEIRMTYIKELGKAIVKREGNSSQNWQRFYQLTKLLDSMHEVVENLLNYCFQTFLDKTMSIEFPEMLAEIITNQIPKYSNGNIKKLLFHQK", "soluble on expression in E. coli": "soluble"},
      {"sequence": "MGHHHHHHSHMIRDLEYYDSPILRKVAAPVTEITDELRQLVLDMSETMAFYKGVGLAAPQVGQSISLFIMGVERELEDGELVFCDFPRVFINPVITQKSEQLVYGNEGCLSIPGLRGEVARPDKITVSAKNLDGQQFSLALEGFLASIVMHETDHLHGVLYIDRMSDKDKTKQFKNNLEKIRRKYSILRGL", "soluble on expression in E. coli": "soluble"},
      {"sequence": "MGTSSFTFPGFYRAKNMRSPECLDLLDSMNHFILHCHWEHADLNRTSLTERKRLGSKYEYENWFEEKRENSGTKFIKRSSSSKEIHYNCALVTNGDNRQFKKSKKLDQYCASGKVQFHDSGSVDVLGCCSHAGHDT", "soluble on expression in E. coli": "not soluble"},
      {"sequence": "SLKYEDINENTIKITLSFDDLTDYDIKLSDFFGNQEVIEQFFYELVDELGLENRFGNVGMLTFQIQPFPQGVHMIVHEEAMLGEGGEIPDDPEEFEELMTGFYNKLNEIGADMARERGITDFKPGLGLPGTKKDEAEQEPDFIYYSIRYEDIMSVLTGIKNVKFADEESEFYRYDGNFYLVVLDNQKEKGKMHVESTRSRMMEYGEATKMSREFLQEYGECLIATRALDVLRKI", "soluble on expression in E. coli": "soluble"},
      {"sequence": "MSLVQNNESVFFVECDSYKESPSTSPIRLDDLDGNDAVSDQGLAFDGDVGITSQARVRNPRAQIFEDSNTDVVLHLDDLDMVPLNTKFDMQMEMGSPMAMPAETPPPVEPLKTKDLAYSSLAHLPSYFFEQTHFRIDRKCLLEMSKLRRNYLTISKQDALSCPQLHSRVAGGYLKPVKEKLFGIRHFLDLEESNTVNLLQDGNYMTELFNSQINIPTFKEFREDFEWCLKIIRDRSLSRFSEKRLQYLVNKFPVFQHLHSKEEMRQSKKVPHKDFYNCRKIDLNLLLSGCFSQWQLTEFIWTKLRKEPDRVIHQAFNGSHITLSQLFKVNFEETGQFFNGLKIIDDSFLEWYKVIYLAKYHLVNDEMEIHTGSHGKQLRYYLIAKTFLEFDNYINGEYLAELLKTFLIKPQEESKYQLCQLSVDFQFYLHYDNSDVDNWWMVFANWLNHYNIFSNNIRWNIRISRIYPELYHTGKVKNFQEYLNLIFKPLFNAENYLHKSLGPILLKFLSQVSSIDLCIQDTDNYIWKNFTAVSCLPKDWTSGGDNPTISQYMYYVYVNLTKLNHIRQALHQNTFTLRSSCSPTSMNRTSQFSNTLNFTEHTEAILNNFLLACGGFLNAENLWNAPPSLVYLFYLSQIPMVVAPLNSIVDSKPTMLQEQAPTGLVLEPSKPYKKNPFMKFFEMGFKISLSSESILYNNSYTKEPIIEEYSVAASIYRLHSADLCELLRNSVITSGFSSTLKNKWLGVSLASHDYFVENTGFVDKWYDCKPNTSLEHNVPIIRRQYRSSTLAGEWRLIIAEGHHHHHH", "soluble on expression in E. coli": "not soluble"}
    ]}
  ]
}
